# Measurements published in patent publication US20250332297A1, “DLL3-SPECIFIC BINDING CONSTRUCTS AND THEIR USE IN RADIOTHERAPY” (MOLECULAR PARTNERS AG, priority 2024, published 2025).
# B1: MAM279 conjugate: SEQ ID NO: 15 conjugated to DOTAM-maleimide, labelled with Pb-212 (natural lead in PK studies) (conjugate)
# chain: GSDLGKKLLEAARAGQDDEVRELLKAGADVNAKDYFSHTPLHLAARNGHLKIVEVLLKAGADVNAKDFAGKTPLHLAADAGHLEIVEVLLKAGADVNAQDIFGKTPADIAADAGHEDIAEVLQKAAGSPTPTPTTPTPTPTTPTPTPTGSDLGKKLLAAAAQGQDDEVRELLKAGANVNAKDLFGYTPLHLAAWRGHLEIVEVLLKAGADVNAKDAAGETPLHLAAWFGHLEIVEVLLKAGADVNAQDLQGKTPADLAAKEGHEDIAEVLQKAAGSGSC
# modifications: DOTAM-maleimide, Pb-212 label; Ankyrin repeat protein with tag (GS-MAM279-tag)
# B2: MAM279: Two domain (2D) ankyrin repeat protein: serum albumin-specific domain (SEQ ID NO: 7), PT linker, DLL3-specific domain of MAM093 (protein)
# chain: DLGKKLLEAARAGQDDEVRELLKAGADVNAKDYFSHTPLHLAARNGHLKIVEVLLKAGADVNAKDFAGKTPLHLAADAGHLEIVEVLLKAGADVNAQDIFGKTPADIAADAGHEDIAEVLQKAAGSPTPTPTTPTPTPTTPTPTPTGSDLGKKLLAAAAQGQDDEVRELLKAGANVNAKDLFGYTPLHLAAWRGHLEIVEVLLKAGADVNAKDAAGETPLHLAAWFGHLEIVEVLLKAGADVNAQDLQGKTPADLAAKEGHEDIAEVLQKAA
# modifications: Ankyrin repeat protein (MAM279)
# B3: MAM279-DOTAM: GS-MAM279-tag (SEQ ID NO: 15) conjugated to the chelator DOTAM via C-terminal tag and maleimide connector, no radionuclide (conjugate)
# chain: B1 chain
# modifications: DOTAM chelator via maleimide on C-terminal tag; Ankyrin repeat protein with tag (GS-MAM279-tag)
# Assays:
# [1] = tested on: NCI-H82 tumors; experiment: Efficacy (tumor growth) in NCI-H82 tumor model; format: in vivo, mouse; settings: for Mean Diff.: Dunnett's multiple comparisons test, tumor volume in mm^3, NCI-H82, R2G2 mice
# Procedure: To determine the efficacy of radio-labelled (Pb-212) DARPin (MAM279) conjugate in inhibiting the growth of tumors that express DLL3, different dose regimens (single or repeated dose) of the conjugate were tested in a relevant mouse tumor model (NCI-H82).
# Animals were under observation daily and 3× per week tumors were measured by caliper. Animals were sacrificed when tumors reached 1500 to 2000 mm^3 or if termination criteria were met. The data were expressed as average+/−SEM of tumor volume in mm^3.
# To determine the efficacy of more frequent repeat-dosing of radio-labelled (Pb-212) DARPin (MAM279) conjugate in inhibiting the growth of tumors that express DLL3, a weekly repeat-dosing regimen of the conjugate was tested in a relevant mouse tumor model (NCI-H82).
# Corresponding injections of buffer only were done as control. The first weekly injection of radio-labeled molecules was done 14 days after xenografting the NCI-H82 cells. Animals were under observation daily and 3× per week tumors were measured by caliper. Animals were sacrificed when tumors reached 1500 to 2000 mm^3 or if termination criteria were met. The data were expressed as average+/−SEM of tumor volume in mm^3. Results are shown in FIGS. 20A to 20D and Table 23.
# [2] = Dose response finding (tolerability) in WT CD1 mice
# From the text: Animals were under observation daily and 3× per week animals were weighed. […] The data were expressed as % of body weight (BW) change (relative to the initial BW −7 day before the treatment).
# Animals were under observation daily and 3× per week animals were weighed. […] The data were expressed as % of body weight (BW) change (relative to the BW seven days before the treatment, i.e. the initial BW at day −7) (average+/−SEM).
# [3] = target: T1, Human DLL3-ECD (Homo sapiens, UniProt Q9NYJ7); experiment: SPR, immobilized DARPin, binding of human DLL3-ECD (Example 17); settings: immobilized biotinylated DARPin, DLL3-ECD as analyte, 1:1 Langmuir, Table 19
# T1 construct: the extracellular domain of DLL3 (DLL3-ECD) from human, cynomolgus monkey, mouse and pig
# T1 sequence (Q9NYJ7 27-492 limits assumed): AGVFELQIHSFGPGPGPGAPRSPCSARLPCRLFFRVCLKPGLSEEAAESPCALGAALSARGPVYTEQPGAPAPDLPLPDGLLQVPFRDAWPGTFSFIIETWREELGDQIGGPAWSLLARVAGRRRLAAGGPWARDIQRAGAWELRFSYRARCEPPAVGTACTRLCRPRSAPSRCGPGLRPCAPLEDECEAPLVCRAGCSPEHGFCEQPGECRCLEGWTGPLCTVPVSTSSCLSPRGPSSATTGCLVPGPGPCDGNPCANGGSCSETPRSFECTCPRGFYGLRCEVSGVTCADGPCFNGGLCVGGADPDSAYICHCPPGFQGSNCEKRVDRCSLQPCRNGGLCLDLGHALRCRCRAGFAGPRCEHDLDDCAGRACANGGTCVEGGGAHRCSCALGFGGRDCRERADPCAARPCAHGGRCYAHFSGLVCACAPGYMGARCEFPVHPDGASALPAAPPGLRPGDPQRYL
# Procedure: (§1) Kinetic binding parameters and binding affinities of two domain (2D) ankyrin repeat protein MAM279 and single domain (1 D) ankyrin repeat protein MAM093 to DLL3 from different species were determined. The DLL3-specific ankyrin repeat domain of MAM093 is identical to the DLL3-specific ankyrin repeat domain comprised in MAM279.
# (§2) SPR multi-trace analyses were performed similarly as described in Examples 1 and 11. Here, the binding kinetics of immobilized DARPin proteins to the extracellular domain of DLL3 (DLL3-ECD) from human, cynomolgus monkey, mouse and pig were determined. Various concentrations of recombinant DLL3-ECD starting from 500 nM were applied to immobilized biotinylated 2D DARPin (MAM279; SEQ ID NO: 11) or 1 D DARPin (MAM093; SEQ ID NO: 1) (both with a Glycine-Serine (GS) at the N-terminal end) for on-rate and off-rate measurements.
# (§3) Streptavidin SAHC200M (Xantec) SPR chip was conditioned according to the manufacturer's protocol. Biotinylated DARPins were immobilized to a coating density of 27 resonance units (RU) for 1D DARPin and 25 RU for 2D DARPin. All analytes (3-fold dilution ranging from 500-6.17 nM) were injected in succession for 240 s and dissociation was recorded for 10800 s using a constant flow of 100 μl/min.
# [4] = target: pig DLL3-ECD; experiment: SPR, immobilized DARPin, binding of pig DLL3-ECD (Example 17); settings: immobilized biotinylated DARPin, DLL3-ECD as analyte, 1:1 Langmuir, Table 20
# Procedure: as §1, §2, §3
# [5] = target: T2, human DLL3 and human serum albumin (Homo sapiens, UniProt P02768+Q9NYJ7); experiment: SPR simultaneous binding to DLL3 and serum albumin; settings: immobilized hDLL3-ECD, 150 nM conjugate then 1000 nM HSA
# T2 construct: Biotinylated recombinant human DLL3-ECD was immobilized
# Procedure: Studies were performed to determine whether a two domain (2D) ankyrin repeat protein conjugate, as described herein, can bind simultaneously to DLL3 and serum albumin. The specific conjugate tested was MAM279 (SEQ ID NO: 11), with a Glycine-Serine (GS) at its N-terminal end and a tag (SEQ ID NO: 10) at its C-terminal end (resulting in GS-MAM279-tag (SEQ ID NO: 15)), conjugated to the chelator DOTAM as described in Example 3.
# An SPR assay was used to assess the concurrent binding of DARPin (MAM279) conjugate to both human DLL3 and human serum albumin (HSA). […] A streptavidin SAHC200M (Xantec) sensor chip was conditioned according to the manufacturer's protocol. Biotinylated recombinant human DLL3-ECD was immobilized to a coating density of 1350-1470 RU. A single injection of 150 nM DARPin conjugate was performed, with an association time of 240 s using a constant flow of 100 μl/min. After a lag time of ˜300 seconds, HSA was injected at 1000 nM with an association time of 240 seconds and a dissociation time of 900 seconds using a constant flow of 100 μl/min. Control lanes were used where only one of the analytes or only PBST was injected. The signal was double referenced (interspot and buffer injection). The figure (FIG. 17) was prepared with GraphPad Prism 10.2.3.
molecule,measurement,setting,value
B1,Mean Diff.,"[1]; Buffer only vs. (4 × 10μCi, 1 wk)",731.9
same,Mean Diff.,[1]; Buffer vs. conjugate (1 × 10μCi),140.6
same,Mean Diff.,"[1]; Buffer vs. conjugate (4 × 10μCi, injections 2 weeks apart)",429.7
same,efficacy in inhibiting the growth of NCI-H82 tumors,"[1]; Pb-212 labelled conjugate, 1×10 μCi or 4×10 μCi (2 weeks apart), in words",good efficacy
same,potency versus benchmark antibody (Rova) conjugate,"[1]; both at 4×10 μCi, NCI-H82 tumors, in words",more potent than the benchmark antibody (Rova) conjugate
same,complete tumor regression,"[1]; four times weekly at 10 μCi, NCI-H82, day 63 post-tumor cell xenograft",about 70 % of mice
same,efficacy in inhibiting the growth of NCI-H82 tumors,"[1]; injected four times weekly at 10 μCi, in words",strong and statistically significant efficacy
same,appearance of animals,"[2]; Pb-212 labelled conjugate injected once at 10 μCi, 20 μCi and 30 μCi i.v., WT CD1 mice",animals appeared healthy and active
same,body weight (BW) change,"[2]; Pb-212 labelled conjugate injected once at 10 μCi, 20 μCi and 30 μCi, WT CD1 mice, recovered within up to about 10 days",Minimal weight loss
same,toxicity,"[2]; Pb-212 labelled conjugate, injected dose of 60 μCi, WT CD1 mice",Toxicity was observed
same,"hematology profile (white blood cells, lymphocytes, monocytes, neutrophils)","[2]; within up to 28 days after injection of 10 μCi, 20 μCi and 30 μCi doses (data not shown)",complete recovery
B2,Kd,[3],0.127 nM
same,Koff Human DLL3-ECD,[3],1.31e-05 s⁻¹
same,Kon Human DLL3-ECD,[3],102000 M⁻¹ s⁻¹
same,Kd,[4],17.3 nM
same,Koff pig DLL3-ECD,[4],0.000319 s⁻¹
same,Kon pig DLL3-ECD,[4],18400 M⁻¹ s⁻¹
B3,simultaneous binding to DLL3 and serum albumin,[5],can bind simultaneously to human DLL3 and human serum albumin
